Experimental findings from patent US20130005646A1 (Novo Nordisk, published 2013) are described below.

For test [1], the target named is T1, human amylin 3(a) receptor (human calcitonin receptor + RAMP-3) (human, UniProt P30988 25-474; O60896 24-148).
T1 sequence (looked up) 1: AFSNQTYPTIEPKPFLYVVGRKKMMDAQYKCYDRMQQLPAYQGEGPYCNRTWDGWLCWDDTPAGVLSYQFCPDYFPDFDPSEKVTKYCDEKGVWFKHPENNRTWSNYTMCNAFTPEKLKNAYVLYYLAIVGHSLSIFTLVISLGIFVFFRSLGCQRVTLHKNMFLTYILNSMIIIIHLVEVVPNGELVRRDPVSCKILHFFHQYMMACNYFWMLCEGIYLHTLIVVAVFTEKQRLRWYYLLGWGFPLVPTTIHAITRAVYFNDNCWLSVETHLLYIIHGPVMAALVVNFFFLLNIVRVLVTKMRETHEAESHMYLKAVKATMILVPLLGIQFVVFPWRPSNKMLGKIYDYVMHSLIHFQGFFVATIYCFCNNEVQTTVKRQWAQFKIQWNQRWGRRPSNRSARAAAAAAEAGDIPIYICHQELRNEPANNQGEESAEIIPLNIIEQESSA
T1 sequence (looked up) 2: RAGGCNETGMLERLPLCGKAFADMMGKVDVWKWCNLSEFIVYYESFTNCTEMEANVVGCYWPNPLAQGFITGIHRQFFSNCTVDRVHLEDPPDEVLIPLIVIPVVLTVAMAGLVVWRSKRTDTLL
Briefly: cell-based or functional assay.

The target of test [2] is T2, human calcitonin (a) receptor (human, UniProt P30988 25-474).
T2 sequence (looked up): T1 sequence (looked up) 1
Briefly: cell-based or functional assay.

Starred links: 1 amine or outer side, 2 acyl side, 3 side chain; linkers in the order of their positions; H or OH if unused. Positions of bridges follow the written chain, without caps; N, C: chain ends. *: point of attachment. C20 diacid = O=C(O)CCCCCCCCCCCCCCCCCCC(=O)*; 19‑carboxyheptadecanoyl = not defined here; γGlu = O=C(O)[C@H](CCC(=O)[*:2])N[*:1]; AEEA = NCCOCCOCC(=O)O

B1: N-alpha-[(S)-4-Carboxy-4-(19-carboxynonadecanoylamino)butyryl]-[Glu14,Arg18,Gln21,Ala25,Pro26,Ser28,Ser29,Pro37]-pramlintide (peptide)
peptide: {C20 diacid-γGlu}-KCNTATCATQRLAEFLVRSSQNFGAPLSSTNVGSNTP-NH2
modifications: disulfide 2-7
SMILES: CC(C)C[C@H](NC(=O)[C@H](CCCNC(=N)N)NC(=O)[C@H](CCC(N)=O)NC(=O)[C@@H](NC(=O)[C@H](C)NC(=O)[C@@H]1CSSC[C@H](NC(=O)[C@H](CCCCN)NC(=O)CC[C@H](NC(=O)CCCCCCCCCCCCCCCCCCC(=O)O)C(=O)O)C(=O)N[C@@H](CC(N)=O)C(=O)N[C@@H]([C@@H](C)O)C(=O)N[C@@H](C)C(=O)N[C@@H]([C@@H](C)O)C(=O)N1)[C@@H](C)O)C(=O)N[C@@H](C)C(=O)N[C@@H](CCC(=O)O)C(=O)N[C@@H](Cc1ccccc1)C(=O)N[C@@H](CC(C)C)C(=O)N[C@H](C(=O)N[C@@H](CCCNC(=N)N)C(=O)N[C@@H](CO)C(=O)N[C@@H](CO)C(=O)N[C@@H](CCC(N)=O)C(=O)N[C@@H](CC(N)=O)C(=O)N[C@@H](Cc1ccccc1)C(=O)NCC(=O)N[C@@H](C)C(=O)N1CCC[C@H]1C(=O)N[C@@H](CC(C)C)C(=O)N[C@@H](CO)C(=O)N[C@@H](CO)C(=O)N[C@H](C(=O)N[C@@H](CC(N)=O)C(=O)N[C@H](C(=O)NCC(=O)N[C@@H](CO)C(=O)N[C@@H](CC(N)=O)C(=O)N[C@H](C(=O)N1CCC[C@H]1C(N)=O)[C@@H](C)O)C(C)C)[C@@H](C)O)C(C)C
For B1, the “Amylin receptor human EC50” value in test [1] amounted to 39 pM. Further, in test [2], the “CTa receptor human EC50” value came to 34 pM.

B2: N-alpha-[2-(2-{2-[2-(2-{2-[(S)-4-Carboxy-4-(19-carboxyheptadecanoylamino)butyrylamino]ethoxy}ethoxy)acetylamino]ethoxy}ethoxy)acetyl]-[Glu14,His17,Lys21,Pro37]- … (peptide)
peptide: {19‑carboxyheptadecanoyl-γGlu-AEEA-AEEA}-KCNTATCATQRLAEFLHHSSKNFGPILPPTNVGSNTP-NH2
modifications: disulfide 2-7; reading uncertain; also: printed as N-alpha-[2-(2-{2-[2-(2-{2-[(S)-4-Carboxy-4-(19-carboxyheptadecanoylamino)butyrylamino]ethoxy}ethoxy)acetylamino]ethoxy}ethoxy)acetyl]-[Glu14,His17,Lys21,Pro37]-pramlintide
B2: the “Amylin receptor human EC50” value in test [1] amounted to 71 pM. Moreover, the “CTa receptor human EC50” value in test [2] came out at 85 pM.

B3: N-alpha-[(S)-4-Carboxy-4-(19-carboxynonadecanoylamino)butyryl]-[des1,Gly3,Glu14,His17,Arg18,Glu31,Gly35]-pramlintide (peptide)
peptide: {C20 diacid-γGlu}-CGTATCATQRLAEFLHRSSNNFGPILPPTEVGSGTY-NH2
modifications: disulfide 1-6
SMILES: CC[C@H](C)[C@H](NC(=O)[C@@H]1CCCN1C(=O)CNC(=O)[C@H](Cc1ccccc1)NC(=O)[C@H](CC(N)=O)NC(=O)[C@H](CC(N)=O)NC(=O)[C@H](CO)NC(=O)[C@H](CO)NC(=O)[C@H](CCCNC(=N)N)NC(=O)[C@H](Cc1c[nH]cn1)NC(=O)[C@H](CC(C)C)NC(=O)[C@H](Cc1ccccc1)NC(=O)[C@H](CCC(=O)O)NC(=O)[C@H](C)NC(=O)[C@H](CC(C)C)NC(=O)[C@H](CCCNC(=N)N)NC(=O)[C@H](CCC(N)=O)NC(=O)[C@@H](NC(=O)[C@H](C)NC(=O)[C@@H]1CSSC[C@H](NC(=O)CC[C@H](NC(=O)CCCCCCCCCCCCCCCCCCC(=O)O)C(=O)O)C(=O)NCC(=O)N[C@@H]([C@@H](C)O)C(=O)N[C@@H](C)C(=O)N[C@@H]([C@@H](C)O)C(=O)N1)[C@@H](C)O)C(=O)N[C@@H](CC(C)C)C(=O)N1CCC[C@H]1C(=O)N1CCC[C@H]1C(=O)N[C@H](C(=O)N[C@@H](CCC(=O)O)C(=O)N[C@H](C(=O)NCC(=O)N[C@@H](CO)C(=O)NCC(=O)N[C@H](C(=O)N[C@@H](Cc1ccc(O)cc1)C(N)=O)[C@@H](C)O)C(C)C)[C@@H](C)O
For B3, in test [1], the “Amylin receptor human EC50” value was 164 pM. The “CTa receptor human EC50” value in test [2] is 222 pM.

B4: N-alpha-[(S)-4-Carboxy-4-(19-carboxynonadecanoylamino)butyryl]-[His1,Glu8,Glu14,His17,Arg18]-pramlintide (peptide)
peptide: {C20 diacid-γGlu}-HCNTATCETQRLAEFLHRSSNNFGPILPPTNVGSNTY-NH2
modifications: disulfide 2-7
SMILES: CC[C@H](C)[C@H](NC(=O)[C@@H]1CCCN1C(=O)CNC(=O)[C@H](Cc1ccccc1)NC(=O)[C@H](CC(N)=O)NC(=O)[C@H](CC(N)=O)NC(=O)[C@H](CO)NC(=O)[C@H](CO)NC(=O)[C@H](CCCNC(=N)N)NC(=O)[C@H](Cc1c[nH]cn1)NC(=O)[C@H](CC(C)C)NC(=O)[C@H](Cc1ccccc1)NC(=O)[C@H](CCC(=O)O)NC(=O)[C@H](C)NC(=O)[C@H](CC(C)C)NC(=O)[C@H](CCCNC(=N)N)NC(=O)[C@H](CCC(N)=O)NC(=O)[C@@H](NC(=O)[C@H](CCC(=O)O)NC(=O)[C@@H]1CSSC[C@H](NC(=O)[C@H](Cc2c[nH]cn2)NC(=O)CC[C@H](NC(=O)CCCCCCCCCCCCCCCCCCC(=O)O)C(=O)O)C(=O)N[C@@H](CC(N)=O)C(=O)N[C@@H]([C@@H](C)O)C(=O)N[C@@H](C)C(=O)N[C@@H]([C@@H](C)O)C(=O)N1)[C@@H](C)O)C(=O)N[C@@H](CC(C)C)C(=O)N1CCC[C@H]1C(=O)N1CCC[C@H]1C(=O)N[C@H](C(=O)N[C@@H](CC(N)=O)C(=O)N[C@H](C(=O)NCC(=O)N[C@@H](CO)C(=O)N[C@@H](CC(N)=O)C(=O)N[C@H](C(=O)N[C@@H](Cc1ccc(O)cc1)C(N)=O)[C@@H](C)O)C(C)C)[C@@H](C)O
Take B4: the “Amylin receptor human EC50” value in test [1] is 602 pM. The “CTa receptor human EC50” value in test [2] is 4300 pM.

B5: N-alpha-[(S)-4-Carboxy-4-(19-carboxynonadecanoylamino)butyryl]-[Glu14,Arg18,Ser21,Ser22,Ser28,Ser29,Asp31,Asp35,Pro37]-pramlintide (peptide)
peptide: {C20 diacid-γGlu}-KCNTATCATQRLAEFLVRSSSSFGPILSSTDVGSDTP-NH2
modifications: disulfide 2-7
SMILES: CC[C@H](C)[C@H](NC(=O)[C@@H]1CCCN1C(=O)CNC(=O)[C@H](Cc1ccccc1)NC(=O)[C@H](CO)NC(=O)[C@H](CO)NC(=O)[C@H](CO)NC(=O)[C@H](CO)NC(=O)[C@H](CCCNC(=N)N)NC(=O)[C@@H](NC(=O)[C@H](CC(C)C)NC(=O)[C@H](Cc1ccccc1)NC(=O)[C@H](CCC(=O)O)NC(=O)[C@H](C)NC(=O)[C@H](CC(C)C)NC(=O)[C@H](CCCNC(=N)N)NC(=O)[C@H](CCC(N)=O)NC(=O)[C@@H](NC(=O)[C@H](C)NC(=O)[C@@H]1CSSC[C@H](NC(=O)[C@H](CCCCN)NC(=O)CC[C@H](NC(=O)CCCCCCCCCCCCCCCCCCC(=O)O)C(=O)O)C(=O)N[C@@H](CC(N)=O)C(=O)N[C@@H]([C@@H](C)O)C(=O)N[C@@H](C)C(=O)N[C@@H]([C@@H](C)O)C(=O)N1)[C@@H](C)O)C(C)C)C(=O)N[C@@H](CC(C)C)C(=O)N[C@@H](CO)C(=O)N[C@@H](CO)C(=O)N[C@H](C(=O)N[C@@H](CC(=O)O)C(=O)N[C@H](C(=O)NCC(=O)N[C@@H](CO)C(=O)N[C@@H](CC(=O)O)C(=O)N[C@H](C(=O)N1CCC[C@H]1C(N)=O)[C@@H](C)O)C(C)C)[C@@H](C)O
As for B5, the “Amylin receptor human EC50” value in test [1] came out at 90 pM. In addition, in test [2], the “CTa receptor human EC50” value is 76 pM.

B6: N-alpha-[2-(2-{2-[2-(2-{2-[(S)-4-Carboxy-4-(19-carboxyheptadecanoylamino)butyrylamino]ethoxy}ethoxy)acetylamino]ethoxy}ethoxy)acetyl]-[Glu14,His17,Glu21,Pro37]- … (peptide)
peptide: {19‑carboxyheptadecanoyl-γGlu-AEEA-AEEA}-KCNTATCATQRLAEFLHHSSENFGPILPPTNVGSNTP-NH2
modifications: disulfide 2-7; reading uncertain; also: printed as N-alpha-[2-(2-{2-[2-(2-{2-[(S)-4-Carboxy-4-(19-carboxyheptadecanoylamino)butyrylamino]ethoxy}ethoxy)acetylamino]ethoxy}ethoxy)acetyl]-[Glu14,His17,Glu21,Pro37]-pramlintide
Take B6: the “Amylin receptor human EC50” value in test [1] is 203 pM. The “CTa receptor human EC50” value in test [2] is 113 pM.
